Molecular target: the molecule itself
Test: cryo-EM structure; purified MmIGF1R and HsIGF1 mixed at molar ratio 1:2, 1 h at 4 °C, complex purified by SEC in 20 mM Hepes-Na pH 7.4, 200 mM NaCl, 0.03% DDM; 4.3 Å

B1: full-length mouse IGF1R (MmIGF1R), residues 1–1262, Y951A, D1107N (receptor)
chain: not shown
notes: Mouse type 1 insulin-like growth factor receptor with C-terminal tail truncation and kinase dead mutation, residues 1–1262, Y951A, D1107N; Disulfide-linked covalent dimer of two protomers; it is written here as one chain per protomer; also called type 1 insulin-like growth factor receptor; not shown: Tsi3, C-terminal, cleaved
**Q.** B1 was tested. Which “stoichiometry N” value did it give?
**A.** 2
